One may read the Kd as the equilibrium constant for the complex coming apart.

The source of these data is patent US20200277406A1 (ROCHE DIAGNOSTICS OPERATIONS, published 2020).

For test [1], the target named is T1, pIGF-1R(1340-1366)[1346-pTyr]amid (phosphotyrosine at 1346 (1346-pTyr); C-terminal amide).
T1 construct: also called pIGF-1R peptide; phosphorylated IGF-1R peptide (free in solution)
T1 peptide: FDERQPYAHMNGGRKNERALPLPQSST
As to the kind of experiment: SPR (Biacore 3000, 25 C), dual binder on biotinylated linker on SA chip, peptide in solution; T40-Bi linker (spacer T20-Biotin-dT-T20). As to the method:
(§1) A BIACORE™ 3000 instrument (GE Healthcare) was used with a BIACORE™ SA sensor mounted into the system at T=25° C. The system was preconditioned at 100 μl/min with 3 ×1 min injection of 1 M NaCl in 50 mM NaOH and 1 min 10 mM HCl.
(§2) 124 RU amino-PEO-biotin were captured on the reference flow cell 1.
(§3) As a control, buffer was injected instead of the ssFabs.

Test [2] addresses T1, pIGF-1R(1340-1366)[1346-pTyr]amid. As to the kind of experiment: SPR (Biacore 3000, SA sensor, 25 °C): ssFab′ hybridised on the captured biotinylated T40-Bi linker (linker 10), peptide injected in solution. As to the method:
as §2, §3
(§4) The dissociation was monitored at 50 μl/min for 5.3 min. The system was regenerated after each concentration step with a 12 sec pulse of 250 mM NaOH and was reloaded with ssFab′ ligand.
In general terms: SPR reads the build-up and loss of mass on a sensor chip optically.

The target in test [3] is T2, IGF-1R(1340-1366)amid (C-terminal amide).
T2 construct: also called IGF-1R peptide; non-phosphorylated IGF-1R peptide (free in solution)
T2 peptide: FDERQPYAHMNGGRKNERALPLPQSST
The test is described as above. As to the method: as §2, §3, §4

Test [4] has as its target T3, IGF-1R(1340-1366)[1346-pTyr; Glu(Bi-PEG-1340]amid (not fully specified; phosphotyrosine at 1346 (1346-pTyr); biotin-PEG linker bound via glutamic acid corresponding to position 1340; C-terminal amide).
T3 construct: also called pIGF-1R peptide; phosphorylated IGF-1R peptide (biotinylated)
T3 peptide: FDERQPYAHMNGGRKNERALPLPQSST
As to the kind of experiment: SPR (Biacore 2000, 25 C), immobilised biotinylated peptide, 100 nM ssFab′ in solution.
Description: (§5) Subsequently biotinylated peptides were captured on the SA surface in the respective flow cells. […] Finally all flow cells were saturated with d-biotin.
(§6) Report points were set at the end of the analyte association phase (Binding Late, BL) and at the end of the analyte dissociation phase (Stability Late, SL) to monitor the response unit signal heights of each interaction. The dissociation rates kd (1/s) were calculated according to a linear 1:1 Langmuir fit using the BIACORE™ evaluation software 4.1. The complex halftimes in minutes were calculated upon the formula ln(2)/(60*kd).

For test [5], the target named is T4, IGF-1R(1340-1366); Glu(Bi-PEG-1340]amid (not fully specified; biotin-PEG linker bound via glutamic acid corresponding to position 1340; C-terminal amide).
T4 construct: also called IGF-1R peptide; non-phosphorylated IGF-1R peptide (biotinylated)
T4 peptide: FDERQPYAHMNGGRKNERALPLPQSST
Described as above.
Description: as §5, §6

The target of test [6] is T1, pIGF-1R(1340-1366)[1346-pTyr]amid. Briefly: SPR (Biacore 3000, SA sensor, 25 °C): ssFab′ hybridised on the captured biotinylated T0-Bi 37-mer linker, peptide injected in solution. As to the method: as §2, §3, §4
The target in test [7] is T2, IGF-1R(1340-1366)amid. Described as above. As to the method:
as §2, §3, §4

In test [8] the target is T1, pIGF-1R(1340-1366)[1346-pTyr]amid. As to the kind of experiment: SPR (Biacore 3000, 25 C), dual binder on biotinylated linker on SA chip, peptide in solution; T0 linker (no thymidine spacer). As to the method:
as §1, §2, §3

Values joined by “and” are separate entries in the source; they are usually repeats but may differ in a detail not shown here. Identical values can stand only once.

B1: T40 dual binding agent (ssFab′ 8.1.2 and ssFab′ 1.4.168 on the T40-Bi linker, linker 10) (bispecific antibody, V domains shown)
VH 1: EVQLQQSGPALVKPGASVKMSCKASGFTFTSYVIHWVKQKPGQGLEWIGYLNPYNDNTKYNEKFKGKATLTSDRSSSTVYMEFSSLTSEDSAVYFCARRGIYAYDHYFDYWGQGTSLTVSS
VL 1: QIVLTQSPAIMSASPGEKVTLTCSASSSVNYMYWYQQKPGSSPRLLIYDTSNLASGVPVRFSGSGSVTSYSLTISRMEAEDAATYYCQQWSTYPLTFGAGTKLELK
VH 2: QCDVKLVESGGGLVKPGGSLKLSCAASGFTFSDYPMSWVRQTPEKRLEWVATITTGGTYTYYPDSIKGRFTISRDNAKNTLYLQMGSLQSEDAAMYYCTRVKTDLWWGLAYWGQGTLVTVSA
VL 2: QLVLTQSSSASFSLGASAKLTCTLSSQHSTYTIEWYQQQPLKPPKYVMELKKDGSHTTGDGIPDRFSGSSSGADRYLSISNIQPEDESIYICGVGDTIKEQFVYVFGGGTKVTVLG
modifications: Fab′ hinge cysteine coupled to ssDNA
On to B1, for which the equilibrium dissociation constant (Kd) in test [1] is 0.01 nM; in test [2], 0.0125 nM; with IGF-1R(1340-1366)amid [3], 0.973 nM and 1 nM. This molecule returned a t1/2 diss in the test with IGF-1R(1340-1366)amid [3] of 4.3 min.

B2: ssFab′ 1.4.168 (Fab, V domains shown)
VH: DVKLVESGGGLVKPGGSLKLSCAASGFTFSDYPMSWVRQTPEKRLEWVATITTGGTYTYYPDSIKGRFTISRDNAKNTLYLQMGSLQSEDAAMYYCTRVKTDLWWGLAYWGQGTLVTVSA
VL: QLVLTQSSSASFSLGASAKLTCTLSSQHSTYTIEWYQQQPLKPPKYVMELKKDGSHTTGDGIPDRFSGSSSGADRYLSISNIQPEDESIYICGVGDTIKEQFVYVFGGGTKVTVLG
modifications: hinge-region cysteine of the Fab′ coupled via maleimide to a fluorescein-labelled ssDNA oligonucleotide
notes: Fab′ of murine mAb 1.4.168 (pepsin cleavage, cysteamine reduction), 1:1 conjugated to ssDNA; also called fluorescein-ssFab′ 1.4.168; ssFab′ 1.004.168
As for B2, the T1/2 dis in test [4] and in test [5] was 3 min in each case. Also, the equilibrium dissociation constant (Kd) in test [6] is 2.59 nM and 3 nM; with IGF-1R(1340-1366)amid [7] it was 1.35 nM and 1 nM; in test [2] it was 2.14 nM and 2 nM; with IGF-1R(1340-1366)amid [3] it was 1.1 nM and 1 nM. Further, the figures for the t1/2 diss (in test [6]; with IGF-1R(1340-1366)amid [7]; with IGF-1R(1340-1366)amid [3]) were 4 min, 4 min and 3 min, respectively.

B3: T0 dual binding agent (ssFab′ 8.1.2 and ssFab′ 1.4.168 on the T0-Bi 37-mer linker) (bispecific antibody, V domains shown)
VH 1: EVQLQQSGPALVKPGASVKMSCKASGFTFTSYVIHWVKQKPGQGLEWIGYLNPYNDNTKYNEKFKGKATLTSDRSSSTVYMEFSSLTSEDSAVYFCARRGIYAYDHYFDYWGQGTSLTVSS
VL 1: QIVLTQSPAIMSASPGEKVTLTCSASSSVNYMYWYQQKPGSSPRLLIYDTSNLASGVPVRFSGSGSVTSYSLTISRMEAEDAATYYCQQWSTYPLTFGAGTKLELK
VH 2: QCDVKLVESGGGLVKPGGSLKLSCAASGFTFSDYPMSWVRQTPEKRLEWVATITTGGTYTYYPDSIKGRFTISRDNAKNTLYLQMGSLQSEDAAMYYCTRVKTDLWWGLAYWGQGTLVTVSA
VL 2: QLVLTQSSSASFSLGASAKLTCTLSSQHSTYTIEWYQQQPLKPPKYVMELKKDGSHTTGDGIPDRFSGSSSGADRYLSISNIQPEDESIYICGVGDTIKEQFVYVFGGGTKVTVLG
modifications: Fab′ hinge cysteine coupled to ssDNA
As to B3, the Kd in test [8] is 0.03 nM; in test [6], 0.0344 nM; with IGF-1R(1340-1366)amid [7], 1.2 nM and 1 nM. Also, the t1/2 diss with IGF-1R(1340-1366)amid [7] was 5 min.
